The record followed here is patent US20150337037A1 (MSM PROTEIN TECHNOLOGIES, published 2015).

For test [1], the target named is T1, cynomolgus monkey CCR6 (cynomolgus monkey (Macaca Fascicularis)).
T1 construct: whole, on cells; gene derived from a total RNA library; also called CCR6 cyno; cyno CCR6
The test can be described thus: flow cytometry on cells expressing the target, IgG1 titration (repeat of Table 2). (In general: In flow cytometry, cells or beads pass a laser one at a time.)

Test [2] addresses T2, mouse CCR6 (mouse, UniProt O54689 1-367).
T2 construct: whole, on cells; gene derived from a cDNA library; also called CCR6 mouse
T2 sequence (looked up): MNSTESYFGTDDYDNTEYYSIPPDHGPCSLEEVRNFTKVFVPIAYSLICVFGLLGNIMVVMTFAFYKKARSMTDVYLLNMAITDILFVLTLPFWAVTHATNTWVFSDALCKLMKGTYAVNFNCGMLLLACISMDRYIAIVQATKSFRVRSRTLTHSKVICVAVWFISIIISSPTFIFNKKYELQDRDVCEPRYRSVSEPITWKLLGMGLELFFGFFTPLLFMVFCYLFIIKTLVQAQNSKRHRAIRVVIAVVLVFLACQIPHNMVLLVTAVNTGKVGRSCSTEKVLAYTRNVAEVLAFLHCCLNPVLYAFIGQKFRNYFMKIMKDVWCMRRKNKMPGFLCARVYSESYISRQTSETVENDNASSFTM
Described as above.

Test [3] deals with T3, human chemokine receptor CCR6 (human, UniProt P51684 1-374).
T3 construct: whole, on cells; gene was synthesized (codon-optimized); a C-terminal tag may be present on the expressed protein; also called CCR6 human; human CCR6
T3 sequence (looked up): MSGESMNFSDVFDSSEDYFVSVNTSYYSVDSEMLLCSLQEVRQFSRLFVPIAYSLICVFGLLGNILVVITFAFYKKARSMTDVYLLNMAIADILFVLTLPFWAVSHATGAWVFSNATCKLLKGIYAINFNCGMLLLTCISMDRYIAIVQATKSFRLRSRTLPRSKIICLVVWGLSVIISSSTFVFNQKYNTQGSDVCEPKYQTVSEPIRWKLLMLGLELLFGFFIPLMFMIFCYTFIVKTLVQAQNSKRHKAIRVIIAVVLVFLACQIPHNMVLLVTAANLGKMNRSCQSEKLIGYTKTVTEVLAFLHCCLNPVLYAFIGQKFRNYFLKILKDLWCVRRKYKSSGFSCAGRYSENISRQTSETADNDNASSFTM
The description is as above.

Test [4] deals with T1, cynomolgus monkey CCR6. Kind of test: flow cytometry on cells expressing the target, IgG1 titration, anti-human Fc-PE.
Test [5] concerns the target T2, mouse CCR6. The test is described as above.
The target of test [6] is T3, human chemokine receptor CCR6. The description is as above.
Test [7] has the same target. The test can be described thus: cell-based or functional assay.
The target is the same in test [8]. The test can be described thus: cell-based or functional assay. This is another data set of the same source.
A further test addresses T4, human CXCR6 (human, UniProt O00574 1-342).
T4 construct: whole, on cells
The test can be described thus: flow cytometry on GPCR-expressing cell panel.

In test [9] the target is T2, mouse CCR6. The test can be described thus: flow cytometry on CHO cells expressing mouse CCR6.
Test [10] deals with T3, human chemokine receptor CCR6. The test can be described thus: flow cytometry on R1610 cells expressing human CCR6, IgG1 titration, anti-human Fc-PE.

T4 sequence (O00574 whole entry): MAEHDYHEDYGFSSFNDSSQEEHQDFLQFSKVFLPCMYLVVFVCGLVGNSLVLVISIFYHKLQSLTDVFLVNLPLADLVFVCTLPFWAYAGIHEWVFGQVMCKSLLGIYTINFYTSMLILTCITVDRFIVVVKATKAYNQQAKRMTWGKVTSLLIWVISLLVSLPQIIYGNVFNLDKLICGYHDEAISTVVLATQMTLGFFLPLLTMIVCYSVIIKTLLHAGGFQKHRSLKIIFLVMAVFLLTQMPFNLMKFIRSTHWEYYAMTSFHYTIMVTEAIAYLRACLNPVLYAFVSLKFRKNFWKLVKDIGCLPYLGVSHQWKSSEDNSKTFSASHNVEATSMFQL

B1: MSM-R606 IgG1 (antibody)
heavy: not shown
light: EIVLTQSPGTLSLSPGERATLSCRASQSVSSSYLAWYQQKPGQAPRLLIYGASSRATGIPDRFSGSGSGTDFTLTISRLEPEDFAVYYCQQSSYSPITFGQGTKVEIKRTVAAPSVFIFPPSDEQLKSGTASVVCLLNNFYPREAKVQWKVDNALQSGNSQESVTEQDSKDSTYSLSSTLTLSKADYEKHKVYACEVTHQGLSSPVTKSFNRGEC
notes: Fully human IgG1
The term EC50 denotes the concentration that produces a half-maximal response. Regarding B1, the EC50 in the test with cynomolgus monkey CCR6 [1] is 1.7 nM; with mouse CCR6 [2], 0.7 nM; in test [3], 1.4 nM; with cynomolgus monkey CCR6 [4], 1.7 nM; with mouse CCR6 [5] it was 0.7 nM; in test [6] it was 1.4 nM. Further, the “IC50, nM CCL20-Ca-Flux” value in test [7] was 8.3 nM. Besides, the “Ca-Flux IC50, nM CCR6/CCL20” value in test [8] stood at 8.3 nM.

B2: MSM-R608 IgG1 (antibody)
heavy: not shown
light: EIVLTQSPGTLSLSPGERATLSCRASQSVSSSYLAWYQQKPGQAPRLLIYGASSRATGIPDRFSGSGSGTDFTLTISRLEPEDFAVYYCQQSYYAPVTFGQGTKVEIKRTVAAPSVFIFPPSDEQLKSGTASVVCLLNNFYPREAKVQWKVDNALQSGNSQESVTEQDSKDSTYSLSSTLTLSKADYEKHKVYACEVTHQGLSSPVTKSFNRGEC
notes: Fully human IgG1
As for B2, the EC50 with cynomolgus monkey CCR6 [1] was found to be 2.5 nM; with mouse CCR6 [2] it was 1 nM; in test [3], 2 nM; with cynomolgus monkey CCR6 [4], 2.5 nM; with mouse CCR6 [5], 1 nM; in test [6] it was 2 nM.

B3: MSM-R607 IgG1 (antibody, V domains shown)
VH: EVQLLESGGGLVQPGGSLRLSCAASGFTFSSYYMHWVRQAPGKGLEWVSLIAPANSDTYYADSVKGRFTISRDNSKNTLYLQMNSLRAEDTAVYYCARSSYTRHSSKRGMDYWGQGTLVTVSS
VL: EIVLTQSPGTLSLSPGERATLSCRASQSVSSSYLAWYQQKPGQAPRLLIYGASSRATGIPDRFSGSGSGTDFTLTISRLEPEDFAVYYCQQAAYSPITFGQGTKVEIKR
notes: Fully human IgG1
As to B3, the binding result with human CXCR6 is “binds”. The EC50 was 2 nM with cynomolgus monkey CCR6 [1]; 1 nM in the test with mouse CCR6 [2]; 1.2 nM in [3]; 2 nM with cynomolgus monkey CCR6 [4]; 1 nM with mouse CCR6 [5]; 1.2 nM in test [6]. Besides, the “IC50, nM CCL20-Ca-Flux” value in [7] was found to be 13.5 nM. For the same molecule, the “Ca-Flux IC50, nM CCR6/CCL20” value in test [8] stood at 13.5 nM.

B4: MSM-R609 IgG1 (antibody, V domains shown)
VH: EVQLLESGGGLVQPGGSLRLSCAASGFTFTASYMSWVRQAPGKGLEWVSNISPKYGNTYYADSVKGRFTISRDNSKNTLYLQMNSLRAEDTAVYYCARSIRSAKYSYYGIDYWGQGTLVTVSS
VL: EIVLTQSPGTLSLSPGERATLSCRASQSVSSSYLAWYQQKPGQAPRLLIYGASSRATGIPDRFSGSGSGTDFTLTISRLEPEDFAVYYCQQSASAPVTFGQGTKVEIKR
notes: Fully human IgG1
For the molecule B4, the EC50 in the test with cynomolgus monkey CCR6 [1] was 1.6 nM; in test [3], 1 nM; with cynomolgus monkey CCR6 [4], 1.6 nM; in [6] it was 1 nM.

B5: MSM-R610 IgG1 (antibody, V domains shown)
VH: EVQLLESGGGLVQPGGSLRLSCAASGFTFTGSSMSWVRQAPGKGLEWVSLISSRGSYTYYADSVKGRFTISRDNSKNTLYLQMNSLRAEDTAVYYCARSYAYQYRGLDYWGQGTLVTVSS
VL: EIVLTQSPGTLSLSPGERATLSCRASQSVSSSYLAWYQQKPGQAPRLLIYGASSRATGIPDRFSGSGSGTDFTLTISRLEPEDFAVYYCQQNRTSPITFGQGTKVEIKR
notes: Fully human IgG1; also called MSM R610.46
With B5, the concentration for a half-maximal effect (EC50) (with cynomolgus monkey CCR6 [1]; in [3]; in the test with cynomolgus monkey CCR6 [4]; in test [6]) was more than 100 nM in each case. For the same molecule, the binding result with mouse CCR6 [9] is recorded as “no binding”.

B6: MSM-R604 IgG1 (antibody, V domains shown)
VH: EVQLLESGGGLVQPGGSLRLSCAASGFTFTNYSMHWVRQAPGKGLEWVSLISPYSSSTYYADSMKGRFTISRDNSKNTLYLQMNSLRAEDTAVYYCARGRYYGAYSYPGFDYWGQGTLVTVSS
VL: EIVLTQSPGTLSLSPGERATLSCRASQSVSSSYLAWYQQKPGQAPRLLIYGASSRATGIPDRFSGSGSGTDFTLTISRLEPEDFAVYYCQQSAKNPLTFGQGTKVEIKR
notes: Fully human IgG1
Turning to B6, the EC50 with cynomolgus monkey CCR6 [1] turned out to be 1.5 nM; in [3], 2.9 nM; with cynomolgus monkey CCR6 [4] it was 1.5 nM; in test [6] it was 2.9 nM. For the same molecule, the binding result with mouse CCR6 [9] was “no binding”.

B7: MSM-R615 IgG1 (antibody, V domains shown)
VH: EVQLLESGGGLVQPGGSLRLSCAASGFTFSSYYMHWVRQTPGKGLEWVSIISPWSSSTYYADSVKGRFTISRDNSKNTLYLQMNSLRAEDTAVYYCARSSYSWGESYKRAIDYWGQGTLVTVSS
VL: EIVLTQSPGTLSLSHGERATLSCRASQSVSSSYLAWYQQKPGQAPRLLIYGASSRATGIPDRFSGSGSGTDFTLTISRLEPEDFAVYYCQQSYYSPVTFGQGTKVEIKR
notes: Fully human IgG1
As to B7, the EC50 in the test with cynomolgus monkey CCR6 [1] was found to be 2.5 nM; in test [3] it was 1 nM; in test [10], 1 nM; with cynomolgus monkey CCR6 [4], 2.5 nM. In the test with mouse CCR6 [9], the binding result was “no binding”.

B8: MSM-R622 IgG1 (antibody, V domains shown)
VH: EVQLLESGGGLVQPGGSLRLSCAASGFTFSKNSMSWVRQAPGKGLEWVSLITSYSGYTYYADSVKGRFTISRDNSKNTLYLQMNSLRAEDTAVYYCARSYAYQYRGLDYWGQGTLVTVSS
VL: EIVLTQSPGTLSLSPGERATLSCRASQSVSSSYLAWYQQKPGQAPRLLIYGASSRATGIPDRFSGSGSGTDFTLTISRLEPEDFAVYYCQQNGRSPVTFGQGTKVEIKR
notes: Fully human IgG1; also called MSM R622.46
B8: the half-maximal effective concentration (EC50) in test [3] and in test [6] was 1.9 nM in each case.

B9: MSM-R621 IgG1 (antibody, V domains shown)
VH: EVQLLESGGGLVQPGGSLRLSCAASGFTFTTYYMHWVRQAPGKGLEWVSGIGPRGSWTGYADSVKGRFTISRDNSKNTLYLQMNSLRAEDTAVYYCARGRALVSNYSGLDYWGQGTLVTVSS
VL: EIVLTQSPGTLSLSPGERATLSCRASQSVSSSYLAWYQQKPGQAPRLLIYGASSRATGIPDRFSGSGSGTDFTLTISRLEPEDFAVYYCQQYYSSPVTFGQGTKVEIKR
notes: Fully human IgG1
B9: the binding result in the test with human CXCR6 was “binds”. Further, the concentration for a half-maximal effect (EC50) came to 2.2 nM in the test with cynomolgus monkey CCR6 [1]; 30 nM in the test with mouse CCR6 [2]; 1.5 nM in [3]; 2.2 nM in the test with cynomolgus monkey CCR6 [4]; 30 nM with mouse CCR6 [5]; 1.5 nM in test [6].

B10: MSM-R617 IgG1 (antibody, V domains shown)
VH: EVQLLESGGGLVQPGGSLRLSCAASGFTFSGYAMHWVRQAPGKGLEWVSSIGSRRGFTSYADSVKGRFTISRDNSKNTLYLQMNSLRAEDTAVYYCARSYAYQYRGLDYWGQGTLVTVSS
VL: EIVLTQSPGTLSLSPGERATLSCRASQSVSSSYLAWYQQKPGQAPRLLIYGASSRATGIPDRFSGSGSGTDFTLTISRLEPEDFAVYYCQQRSSVTFGQGTKVEIKR
notes: Fully human IgG1; also called MSMR617.46
In the case of B10, the EC50 with cynomolgus monkey CCR6 [1] was found to be 1.9 nM; in test [3], 1.5 nM; with cynomolgus monkey CCR6 [4] it was 1.9 nM; in test [6], 1.5 nM.

B11: MSM-R612 IgG1 (antibody, V domains shown)
VH: EVQLLGSGGGLVQPGGSLRLSCAASGFTFTTYYMHWVRQAPGKGLEWVSLISPNAGNTYYADSVKGRFTISRDNSKNTLYLQMNSLRAEDTAVYYCARGRSRAGTSGMDYWGQGTLVTVSS
VL: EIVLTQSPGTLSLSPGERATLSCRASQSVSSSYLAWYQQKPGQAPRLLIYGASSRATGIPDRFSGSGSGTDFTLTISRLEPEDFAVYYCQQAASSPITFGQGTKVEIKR
notes: Fully human IgG1
For the molecule B11, the EC50 with cynomolgus monkey CCR6 [1] turned out to be 1.6 nM; with mouse CCR6 [2], 1.5 nM; in test [3] it was 1 nM; in the test with cynomolgus monkey CCR6 [4], 1.6 nM; with mouse CCR6 [5], 1.5 nM; in [6] it was 1 nM.

B12: MSM-R619 IgG1 (antibody, V domains shown)
VH: EVQLLESGGGLVQPGGSLRLSCAASGFTFSNYYIHWVRQAPGKGLEWVSLISPGGSTTYYADSVKGRFTISRDNSKNTLYLQMNSLRAEDTAVYYCARGRTWWSTYYSGIDYWGQGTLVTVSS
VL: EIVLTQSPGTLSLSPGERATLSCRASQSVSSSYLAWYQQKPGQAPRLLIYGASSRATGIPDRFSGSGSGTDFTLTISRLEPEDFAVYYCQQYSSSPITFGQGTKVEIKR
notes: Fully human IgG1; also called MSM R19
In the case of B12, the EC50 in the test with cynomolgus monkey CCR6 [1] is 2 nM; in test [3], 1.7 nM; in the test with cynomolgus monkey CCR6 [4], 2 nM; in test [6], 1.7 nM. In the test with mouse CCR6 [9], the binding result is recorded as “no binding”.
